Reference: paper PMC2597655

Assays:
[1] = biological target: DNA polymerase beta I260Q (UniProt P06766 1-335, I260Q); test: EMSA
[2] = biological target: DNA polymerase beta WT (UniProt P06766 1-335); test: EMSA

B1: CII5T A:A (5 nt gap, mispaired primer terminus) (dsDNA)
DNA 1: TTGCGACTTATCAACGCCCACAA
DNA 2: GCTGTCTTCTCAGTTTC
DNA 3: GAAACTGAGAAGACAGCTACTGATGTGGGCGTTGATAAGTCGCAA
modifications: 5'-phosphate on downstream oligo and template
Kd [1]: 2 nM
Kd [2]: 6 nM
